Reference: the DeepSol protein solubility set

Experiment: soluble on expression in E. coli; label from the status in PepcDB or PDB records

Sequence | soluble on expression in E. coli
MKKHHHHHHLVPRGSIPHLILELLKCEPDEPQVQAKIMAYLQQEQANRSKHEKLSTFGLMCKMADQTLFSIVEWARSSIFFRELKVDDQMKLLQNCWSELLILDHIYRQVVHGKEGSIFLVTGQQVDYSIIASQAGATLNNLMSHAQELVAKLRSLQFDQREFVCLKFLVLFSLDVKNLENFQLVEGVQEQVNAALLDYTMCNYPQQTEKFGQLLLRLPEIRAISMQAEEYLYYKHLNGDVPYNNLLIEMLHAKRA | soluble
MKKIAIFGSAFNPPSLGHKSVIESLSHFDLVLLEPSIAHAWGKNMLDYPIRCKLVDAFIKDMGLSNVQRSDLEQALYQPGQSVTTYALLEKIQEIYPTADITFVIGPDNFFKFAKFYKAEEITERWTVMACPEKVKIRSTDIRNALIEGKDISTYTTPTVSELLLNEGLYRETLSGK | soluble
MKKILLMLSLLFFTTAGFSEVSDTLVTGGYDKQAMSDAIKHARKETDKFIEVMNKKDADTFAVKAPITDHGRTEHFWLTDVTYSNGMFIGVISNDPGIVTNVEYGQEWKIKKEDISDWMYTRGDKIYGGYTIDPLLVTYPKEEADELRAKLVR | soluble
MKKLFGVGPDLLGDGKVLFEWSPKGNFLAAAGSKRKVNIFDRNGRLYDEVHFPPAEYPNPDGRACAAAQMQWDPAGEQLAILPAGNTHVFIWLAGNKEVQKIESEFKTQEFSCMAWSRNGMYLGVATVKGNVMMYNARERKKTPLVGKHTKKIVAAAWNKDNIMALAGQDKTVTLTDGVTGDTIKTFHLKDVPMDLCVSDKKEDGYSRREENTYSLNINRKTLYIMQCTAEGDRPLELAFLDTYGPIMKHSWFGDGYILLGYKNGYVAVVSSHSREISEEVHSGKYLDTLTDVTYCASLGRVAMAGANCVRVLDANADYNEIKGDAVDLDANQAIEKVGWTKDGQVLTVGTHNGYMHSFLASLPMVYDFHGTRVLYLTSLLEMTLLDVSRRQTVARIELENEPAFCGLGPSHAAVGMNNQAAFYSLGEKVGKVVQRREYLGTITAIKLNETQAAVLTGGHVVVHPISVEAGHAPDELDVVIPGPGQPANITCVALTPTFVITGSRTGTLSYYLSPDVTPVNEFRHDDGGIVRLFPQATGARLVFEDDKGALHLFNPVNDHVVAVPYTGRAETVMWDTSDTNVMVIGDGTALHSFLYVPVSLTGPQVQDLGKQAVPATHTPLTVCNGVVGCRLKSGAMDNVTLESHKMLQPGDAVARAAPAKRFAAALKLYKLRDAVECAKQLRQVESWRTLALAALDVLDIDTAINAYREIGDASMVLSLERVRQHEDRNLLSAHIMVLLEKDYGQAQELFLRSSVPRAALEMRMDLKHWTDALKLAEQLDPDAIATICKEHGAMLEMTGEYSNAKSHYQQALDALAVSVGPAQPDLEAACKAGIARTTLQLGDLRQGRQLAMQLNSQTLFKECALILEGLQQLTEAAEMYERAGQFERAASIYIQTKNFAAAAPLMARISSSKLQLQFAKAKEAEGRWQEAAAAYEAAGDMDAVVRLCLERLSQPQRAYAIVRKTQSVEAANQLSRFCLQSQDFGGAVEFLLMAGQMDQAFDIAMGHNEMDTFARIVAASAKPVDYQRIAQYYESRGEYDKAADMWSKCDQAPRAVQLYLKVGTNPALEKAVQVVEQTRSHQLGVLVLDYVNEEKDGTTRDEFRFKLNIAMGQFAEAARDALEMARFEQEEGNYRVAHDKLFGTVKQLEALNTKPPGELLRALMLLHSYTLVKSLIAINDHTTAARMLVRVARNISKFPKHIVPILTSTVIECHRANLKKTAFEYASMLMRPEYRDQVAVKYKKKIELMVRKPEKDPEELEEPLADCPFCNMPGPETELQCISCQNILPFDLATGKRMVLSDWAECPGCKFPASASQFIRIISAEGRCPM | not soluble
MKKLLVIRNDKIGDFMLCFPAFMMLKQSMPNIEITALVPNYTAPLAELCPAIDHLIIDNTDKQDPIAFKQVQQAVQNGQFDAVICFVSSWYNAKLTWQSGIRYRLAPATKLFQFLYNHRLTQRRSQSIKAESEYNLDLARAFLIDHHMMPVEPQLEHHHHHH | soluble
MKKLYIITGPAGVGKSTTCKRLAAQLDNSAYIEGDIINHMVVGGYRPPWESDELLALTWKNITDLTVNFLLAQNDVVLDYIAFPDEAEALAQTVQAKVDDVEIRFIILWTNREELLRRDALRKKDEQMGERCLELVEEFESKGIDERYFYNTSHLQPTNLNDIVKNLKTNPRFIFCMAGDPLEHHHHHH | soluble
MKKQQFIDMQEQGTSTIPNLLLTHYKQLGLNETELILLLKIKMHLEKGSYFPTPNQLQEGMSISVEECTNRLRMFIQKGFLFIEECEDQNGIKFEKYSLQPLWGKLYEYIQLAQNQTQERKAEGEQKLEHHHHHH | soluble
MKKRKPMDYKTRIIYALLKSRLKTIDTYASRAEEIQDRQLRRILSSAAYTSTGIRYGFNRISSKECFARNVPVRDYESTQAEIERMLRGEKDVLCPGRCTWFAKSSGTTNSKSKFIPVPYRHLHYCHYQGGKDSLSLYLRNRPDSRFFTTKGLVLGGSHAPVSMNADIQVGDLSAILVENMPVLGNCMRVPSKETLLMDEWTEKLKAVVREVAHVRVGSLSGVPSWILVLIKDVLAATGRETLSDVWPELEVFFHGGISFAPYRAQYEKLIPSSRMQYMETYNASEGFFGIQDDPKDSGMLLMLDYGVYYEFIPMEHFGRPEAEAIPLEGVEKGRNYAMIISTLGGLYRYVLGDTVRFTSVKPYKIVITGRTKHYINAFGEELMVDNSDKALAATCKRFGVQAVDYTVAPHFFSEEGKGRHDWLIEFVSAPADPNAFAKALDAELQTLNSDYEAKRYADMTLLPLSLTIARSGLFHDWLTEQGKLGGQHKVPRLSNTPEIMRSILEMNSAAALEHHHHHH | not soluble
MKKSITTLDLNLLLCLQLLMQERSVTKAAKRINVTPSAVSKSLAKLRAWFDDPLFVNSPLGLSPTPLMVSMEQNLAEWMQMSNLLLDKPHHQTPRGLKFELAAESPLMMIMLNALSKQIYQRYPQATIKLRNWDYDSLDAITRGEVDIGFSGRESHPRSRELLSSLPLAIDYEVLFSDVPCVWLRKDHPALHQTWNLDTFLRYPHISICWEQSDTWALDNVLQELGRERTIAMSLPEFEQSLFMAAQPDNLLLATAPRYCQYYNQLHQLPLVALPLPFDESQQKKLEVPFTLLWHKRNSHNPKIVWLRETIKNLYASMA | soluble
MKKSLLGIISILSLTLLFSGCVDNSGAEEQAVLHAYVGAGMQMPMDEIAIEFEEKYGIKVEYDYSGSGALLSKIVASNQGDIFMPGDCSYVYQLQEKEMSTECSNVTKHIPVIAVQKGNPKNITGLSDLGQDDLELALGDSSISIGKLFTKILSKAETKGVNVTEAVNSNTVVTGATVKQVLLYVTEKNVDAAVVWSADAYENSDAVDIVPIESEYNIIKTVPISILSTTEDYDNAKLFYDFVNNEGKEIFEKHGFVALE | not soluble
MKKTAIALLAWFVSSASLAATPWQKITHPVPGAAQSIGSFANGCIIGADTLPVQSDNYQVMRTDQRRYFGHPDLVMFIQRLSHQAQQRGLGTVLIGDMGMPAGGRFNGGHASHQTGLDVDIFLQLPKTRWSQAQLLRPQALDLVSRDGKHVVPSRWSSDIASLIKLAAQDNDVTRIFVNPAIKQQLCLDAGNDRDWLRKVRPWFQHRAHMHVRLRCPADSLECEDQPLPPPGDGCGAELQSWFEPPKPGTTKPEKKTPPPLPPSCQALLDEHVL | not soluble
MKKTHVTIGLSNPKSPTNVGAVMRAAGCYQVDDVRYTGERYDRAAKFQTDTKKVASKIPLTSVNCLLDDLPEDMKVVCVELAEGAVSLPQFQHPDKAIYVFGPEDGSITQQVADRADHVVYVPTVGCMNLAATVNVLLYDRLAK | not soluble
MKKTIQQLVLERILILDGAMGTMIQQYNLREEDFRNERFAHIPGQLKGNNDLLCLTRPDVIRDIHRKYLEAGADIIETNTFSSTTISMADYHVQEYVREMNQAAVKLAREVADEYTALNPDKPRFVAGSVGPTNKTCSMSPDVNNPAYRAVTYDEMADAYQQQMEAMLESGVDALLIETIFDTLNAKAAILAAERAMKATGVKVPVMLSVTVSDTGGRTLSGQTLEAFLASVQHADIFSVGLNCSFGARQLKPFLEQLAARAPYYISAYPNAGLPNSLGKYDQTPADMAHEVKEYVHEGLINIIGGCCGTTDAYIAEYPALIAGAKPHIPVCKPDCMWLSGLELLEVKPEINFVNVGERCNVAGSRKF | not soluble
MKKVAIVGLGWLGMPLAMSLSARGWQVTGSKTTQDGVEAARMSGIDSYLLRMEPELVCDSDDLDALMDADALVITLPARRSGPGDEFYLQAVQELVDSALAHRIPRIIFTSSTSVYGDAQGTVKETTPRNPVTNSGRVLEELEDWLHNLPGTSVDILRLAGLVGPGRHPGRFFAGKTAPDGEHGVNLVHLEDVIGAITLLLQAPKGGHIYNICAPAHPARNVFYPQMARLLGLEPPQFRNSLDSGKGKIIDGSRICNELGFEYQYPDPLVMPLE | soluble
MKKYNIPVEATLEVIGGKWKVVILCHLTKGTKRTSELKRSMPGITQKMLTQQLRELEDDGVIQRKVYNQVPPKVEYSLTDYGWSLESILDSLCSWGECHLEKEGNTSMLIAEGE | not soluble
MKLASYLQENIVVEKNGRFTIPIKKQYRSKVSGTVIDTSSSGATVFMEPKEVGALYEQLDDLLAAESYEVETILYTLTASVLAIEKELHLAMDIMHHYDVLFAKAKYGRSIDGVIPLEHHHHHH | not soluble
MKLCGKLANITTVDYGGIACHAGVDRRISLHNFTISLPESGNPMSATFDPDNLRASLLALNVIDPLSLDGQAYQRFYGLAGLGGENVVRSWLGRLDVDGYEIVGQVWLPESPVATLFLFHGFYDHMGLYRHVIEWALTQGFAVISCDLPGHGLSSGSRASINDFAEYQVVLQRLLLEAGSLGLPHPWHLCGQSTGGAIVIDHLLHQGAESPAQGEVILLAPLVRPRAWGWSRFSYRLLKPFVSGIARRFTENSNAPAFLPFLLADPLQPRRLPTAWVGALAQWIVRVESAPRSLRSPIIIQGDADMTVDWSHNLAVLKDKFSQPHILMLGHARHHLANETPELRARYFDFVKGRLG | not soluble
MKLDPQTLAHITSATLGNYNRVADDFREGTRDHDVSQNIDALLRHIEGSAPWQILDFGCGPGRDLKTFTAMGHVAVGLDGSERFAEMARAETGCEVFQQNFLELDLPQGRFDGIFANAVLFHIPRQELPRVLRELYATLKPGGVLFSSNPRGQNQEGWQGERYGAYHDLETWRQLLTDAGFAELEHYYRPAGLPRDQQPWLASVWRRLEHHHHHH | not soluble
MKLELSYSDHLQLSESLNELGQTTRITQLEPGEGKYTMSFKQSTGIALAEIQSTQPLLYEGWGTTWSVDFNWITPTCHLNDPFGYCEGYEMKETSLGGFNTLNTSPGNSWGKYSNNCSSTACMLDKNILMKMLKECNAAQAIDNLSKARGLDVSSESLYQLKKLTRKDLVRGIMNPTKYYDLIVACLEGGDKRGYRKGLTKNYRLLGEIVQLSHDSRRMSSPMTLSDVCQYLDTGQASLYRVCQDYFGMGIIEMMTQIRLEEARRALLMFKQNEKNHALTVRDVALGYGFKHQGRFSRRYFTSFGELPSQTLDRSQEL | not soluble
MKLERILPFSKTLIKQHITPESIVVDATCGNGNDTLFLAEQVPEGHVYGFDIQDLALENTRDKVKDFNHVSLIKDGHENIEHHINDAHKGHIDAAIFNLGYLPKGDKSIVTKPDTTIQAINSLLSLMSIEGIIVLVIYHGHSEGQIEKHALLDYLSTLDQKHAQVLQYQFLNQRNHAPFICAIEKIS | not soluble
